Four proteins from patent publication US20080214461 can be followed below.

T1: activated factor VIII (FVIIIa): Recombinate Antihemophilic Factor activated with thrombin, P00451
T1 chain: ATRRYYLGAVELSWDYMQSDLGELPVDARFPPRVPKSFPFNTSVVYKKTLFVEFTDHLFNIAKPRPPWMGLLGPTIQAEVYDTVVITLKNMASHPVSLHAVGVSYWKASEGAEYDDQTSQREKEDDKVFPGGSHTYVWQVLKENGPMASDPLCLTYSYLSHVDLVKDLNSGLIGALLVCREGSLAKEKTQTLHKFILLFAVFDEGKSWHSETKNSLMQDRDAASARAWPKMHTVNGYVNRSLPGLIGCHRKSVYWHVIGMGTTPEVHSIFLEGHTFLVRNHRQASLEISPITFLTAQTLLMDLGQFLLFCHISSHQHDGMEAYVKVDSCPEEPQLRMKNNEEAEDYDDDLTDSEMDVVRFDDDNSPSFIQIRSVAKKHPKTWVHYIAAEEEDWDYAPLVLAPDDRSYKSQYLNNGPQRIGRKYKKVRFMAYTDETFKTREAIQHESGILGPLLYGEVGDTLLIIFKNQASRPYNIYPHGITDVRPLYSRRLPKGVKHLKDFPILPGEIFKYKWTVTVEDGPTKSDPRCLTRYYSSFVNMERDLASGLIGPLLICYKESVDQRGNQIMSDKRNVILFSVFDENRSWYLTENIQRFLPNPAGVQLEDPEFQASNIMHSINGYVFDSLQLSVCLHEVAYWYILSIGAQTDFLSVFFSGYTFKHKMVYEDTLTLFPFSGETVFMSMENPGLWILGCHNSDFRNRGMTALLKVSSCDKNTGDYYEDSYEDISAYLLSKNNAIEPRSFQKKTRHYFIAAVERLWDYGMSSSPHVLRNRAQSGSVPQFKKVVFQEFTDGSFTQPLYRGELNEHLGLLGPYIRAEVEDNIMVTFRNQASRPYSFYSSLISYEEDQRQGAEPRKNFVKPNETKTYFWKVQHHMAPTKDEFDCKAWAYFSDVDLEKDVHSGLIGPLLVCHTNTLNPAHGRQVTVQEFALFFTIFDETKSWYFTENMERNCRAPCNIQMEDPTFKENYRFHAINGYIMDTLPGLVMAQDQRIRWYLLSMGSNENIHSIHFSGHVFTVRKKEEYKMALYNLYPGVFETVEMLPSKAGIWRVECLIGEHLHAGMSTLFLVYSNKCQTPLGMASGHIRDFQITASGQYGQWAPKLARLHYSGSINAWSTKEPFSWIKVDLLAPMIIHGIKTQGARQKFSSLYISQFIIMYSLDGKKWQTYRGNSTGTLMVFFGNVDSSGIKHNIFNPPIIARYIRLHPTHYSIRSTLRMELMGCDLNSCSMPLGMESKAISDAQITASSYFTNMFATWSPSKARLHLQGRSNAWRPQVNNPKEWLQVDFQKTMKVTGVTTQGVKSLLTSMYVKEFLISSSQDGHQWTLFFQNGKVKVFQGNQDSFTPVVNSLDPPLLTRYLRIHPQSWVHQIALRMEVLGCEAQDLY

B1: FIX-Y94F/K98T/Y177F (recombinant, full length, HEK 293), activated form (protein)
chain: YNSGKLEEFVQGNLERECMEEKCSFEEAREVFENTERTTEFWKQYVDGDQCESNPCLNGGSCKDDINSYECWCPFGFEGKNCELDVTCNIKNGRCEQFCKNSADNKVVCSCTEGYRLAENQKSCEPAVPFPCGRVSVSQTSKLTRAEAVFPDVDYVNSTEAETILDNITQSTQSFNDFTRVVGGEDAKPGQFPWQVVLNGKVDAFCGGSIVNEKWIVTAAHCVETGVKITVVAGEHNIEETEHTEQKRNVIRIIPHHNFNAAINTYNHDIALLELDEPLVLNSYVTPICIADKEYTNIFLKFGSGYVSGWGRVFHKGRSALVLQYLRVPLVDRATCLRSTKFTIFNNMFCAGFHEGGRDSCQGDSGGPHVTEVEGTSFLTGIISWGEECAMKGKYGIYTKVSRYVNWIKEKTKLT
B2: FIX-Y94F/K98T/Y177F/I213V/E219G (recombinant, full length, HEK 293), activated form (protein)
chain: B1 chain with I383V, E388G
B3: FIX-Y94F/A95aK/K98T/Y177F/I213V/E219G (recombinant, full length, HEK 293), activated form (protein)
chain: B1 chain with A261K, I383V, E388G
B4: FIX-Y94F/A95aK/K98T/Y177F (recombinant, full length, HEK 293), activated form (protein)
chain: B1 chain with A261K

Residue numbers refer to the chain shown, from its start. In names and notes the source's numbering stands.

One data set addresses T1, activated factor VIII (FVIIIa): ….
For B1, the “ratio kcat/KM +/- FVIIIa (FX activation)” value was 16,424.

In the case of B2, the “ratio kcat/KM +/- FVIIIa (FX activation)” value was 9,581.

For B3, the “ratio kcat/KM +/- FVIIIa (FX activation)” value was 8,354.

B4: the “ratio kcat/KM +/- FVIIIa (FX activation)” value is 5,705.

For the next data set, the target named is factor X (FX), P00742.
Sequence of factor X (FX), P00742 (P00742 whole entry, looked up): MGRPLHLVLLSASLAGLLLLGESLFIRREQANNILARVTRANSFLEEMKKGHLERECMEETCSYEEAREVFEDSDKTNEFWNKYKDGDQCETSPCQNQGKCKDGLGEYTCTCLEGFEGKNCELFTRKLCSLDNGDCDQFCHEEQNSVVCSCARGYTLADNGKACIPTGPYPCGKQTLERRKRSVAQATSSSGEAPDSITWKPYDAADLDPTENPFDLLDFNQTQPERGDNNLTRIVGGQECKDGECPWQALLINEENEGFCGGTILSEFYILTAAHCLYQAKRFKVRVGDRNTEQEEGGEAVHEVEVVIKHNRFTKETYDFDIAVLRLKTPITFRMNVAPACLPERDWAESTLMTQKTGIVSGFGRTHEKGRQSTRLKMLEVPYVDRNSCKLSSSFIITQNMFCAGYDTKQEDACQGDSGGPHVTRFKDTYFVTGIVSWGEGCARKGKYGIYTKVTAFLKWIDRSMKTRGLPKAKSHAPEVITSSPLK
Consider B1, for which the KM (nM), FX activation with FVIIIa was 14 nM; the KM (nM), FX activation without FVIIIa turned out to be 68 nM; the kcat (10^-3 min^-1), FX activation without FVIIIa turned out to be 0.000333 s⁻¹; the kcat (min^-1), FX activation with FVIIIa amounted to 68 min⁻¹. For the same protein, the kcat/KM (10^-6 nM^-1 min^-1), FX activation without FVIIIa was 4880 M⁻¹ s⁻¹; the kcat/KM (nM^-1 min^-1), FX activation with FVIIIa came out at 8.33e+07 M⁻¹ s⁻¹; the “rate of FX activation against pdFIXa” value is “FIX-WT and FIX-Y94F/K98T/Y177F activated FX at the same rate as pdFIXa”.

With B2, the KM (nM), FX activation with FVIIIa was 17 nM; the KM (nM), FX activation without FVIIIa worked out at 40 nM; the “fold increase of kcat of FX activation against pdFIX” value was “enhanced the kcat by a factor of 17 and 6, respectively”; the kcat (10^-3 min^-1), FX activation without FVIIIa worked out at 0.00222 s⁻¹. The kcat (min^-1), FX activation with FVIIIa worked out at 528 min⁻¹; the kcat/KM (10^-6 nM^-1 min^-1), FX activation without FVIIIa came to 54900 M⁻¹ s⁻¹; the kcat/KM (nM^-1 min^-1), FX activation with FVIIIa turned out to be 5.33e+08 M⁻¹ s⁻¹.

Turning to B3, the KM (nM), FX activation with FVIIIa is 13 nM; the KM (nM), FX activation without FVIIIa was determined as 55 nM; the “fold increase of kcat of FX activation against pdFIX” value was “enhanced the kcat by a factor of 17 and 6, respectively”; the kcat (10^-3 min^-1), FX activation without FVIIIa is 0.00102 s⁻¹. In addition, the kcat (min^-1), FX activation with FVIIIa is 122 min⁻¹; the kcat/KM (10^-6 nM^-1 min^-1), FX activation without FVIIIa came to 18200 M⁻¹ s⁻¹; the kcat/KM (nM^-1 min^-1), FX activation with FVIIIa was 1.5e+08 M⁻¹ s⁻¹.

With B4, the KM (nM), FX activation with FVIIIa worked out at 20 nM; the KM (nM), FX activation without FVIIIa stood at 73 nM; the kcat (10^-3 min^-1), FX activation without FVIIIa came to 6.67e-05 s⁻¹; the kcat (min^-1), FX activation with FVIIIa was 7 min⁻¹. Moreover, the kcat/KM (10^-6 nM^-1 min^-1), FX activation without FVIIIa amounted to 950 M⁻¹ s⁻¹.
